This passage reports GREM1-mCherry uptake into HCT116 cells (integrated mCherry fluorescence per cell) from conditioned medium with 200 ng/ml BMP2 versus vehicle, overnight (16 h) results from publication PMC12597263.

The target in the assay is T1, recombinant human (rh) BMP2 (human) (UniProt P12643).
T1 sequence: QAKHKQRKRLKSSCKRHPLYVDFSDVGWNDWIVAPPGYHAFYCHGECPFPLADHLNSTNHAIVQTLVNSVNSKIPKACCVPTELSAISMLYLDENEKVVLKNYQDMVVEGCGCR

B1: GREM1^WT-mCherry (human Gremlin1 fused to mCherry) (natural protein)
chain: KKKGSQGAIPPPDKAQHNDSEQTQSPQQPGSRNRGRGQGRGTAMPGEEVLESSQEALHVTERKYLKRDWCKTQPLKQTIHEEGCNSRTIINRFCYGQCNSFYIPRHIRKEEGSFQSCSFCKPKKFTTMMVTLNCPELQPPTKKKRVTRVKQCRCISIDLD
In the case of B1, the GREM1-mCherry uptake into HCT116 cells (integrated mCherry fluorescence per cell) from conditioned medium with 200 ng/ml BMP2 versus vehicle, overnight (16 h) was determined as 5 fold.
